Assay results taken from paper PMC11908827, “PpERF17 alleviates peach fruit postharvest chilling injury under elevated CO2 by activating jasmonic acid and γ-aminobutyric acid biosynthesis”.

Tests used:
PpERF17 [1] = target: T1, PpERF17 (Prunus persica (peach), cv. …, UniProt M5W9J0 1-215); assay: EMSA; cold probe 50x/500x competes; Chemiluminescent EMSA Kit (Beyotime); buffer, salt, pH and temperature not stated; conditions: protein: recombinant; tags: GST (N-terminal, pGEX-4T-1); label: biotin; blunt
T1 sequence: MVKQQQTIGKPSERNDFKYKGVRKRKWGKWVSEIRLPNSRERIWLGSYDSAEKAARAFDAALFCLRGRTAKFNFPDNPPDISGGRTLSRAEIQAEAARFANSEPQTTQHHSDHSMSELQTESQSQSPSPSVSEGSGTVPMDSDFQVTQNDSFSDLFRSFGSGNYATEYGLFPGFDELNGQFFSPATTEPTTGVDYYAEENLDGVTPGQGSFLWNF

PpERF17 [2] = target: T1, PpERF17; assay: EMSA; Chemiluminescent EMSA Kit (Beyotime); buffer, salt, pH and temperature not stated; conditions: protein: recombinant, tags: GST (N-terminal, pGEX-4T-1), label: biotin

B1: PpERF17-PpOPR3 probe (dsDNA)
DNA 1: TAGAAACCAAAACGACACCGGCCATAAATAAATCCGC
DNA 2: GCGGATTTATTTATGGCCGGTGTCGTTTTGGTTTCTA
B1: binds (PpERF17 [1]).

B2: PpERF17-Pp13S-LOX mutant probe (dsDNA)
DNA 1: TCTTAAAAACGTGAAAAAAAAAAGATCAACAGTACCC
DNA 2: GGGTACTGTTGATCTTTTTTTTTTCACGTTTTTAAGA
B2: no binding (PpERF17 [2]; blunt).

B3: PpERF17-PpAOS probe (dsDNA)
DNA 1: ATGGTTCATGTACCCCACCGTCTTCACACTCACCTTC
DNA 2: GAAGGTGAGTGTGAAGACGGTGGGGTACATGAACCAT
B3: binds (PpERF17 [1]).

B4: PpERF17-PpGAD mutant probe (dsDNA)
DNA 1: CATAAAAAAAAAAGGTTTTTTTTTGTTCCAACTTGG
DNA 2: CCAAGTTGGAACAAAAAAAAAACCTTTTTTTTTATG
B4: no binding (PpERF17 [2]).

B5: PpERF17-PpAOS mutant probe (dsDNA)
DNA 1: ATGGTTCATGTACCCTTTTTTTTTCACACTCACCTTC
DNA 2: GAAGGTGAGTGTGAAAAAAAAAGGGTACATGAACCAT
B5: no binding (PpERF17 [2]; blunt).

B6: PpERF17-Pp13S-LOX probe (dsDNA)
DNA 1: TCTTAAAAACGTGTGGACGGTGAGATCAACAGTACCC
DNA 2: GGGTACTGTTGATCTCACCGTCCACACGTTTTTAAGA
B6: binds (PpERF17 [1]).

B7: PpERF17-PpOPR3 mutant probe (dsDNA)
DNA 1: TAGAAACCAAAACGATTTTTTTTTTAAATAAATCCGC
DNA 2: GCGGATTTATTTAAAAAAAAAATCGTTTTGGTTTCTA
B7: no binding (PpERF17 [2]; blunt).

B8: PpERF17-PpGAD probe (dsDNA)
DNA 1: CATAAGGTCGGAAGGCACCGTCCATGTTCCAACTTGG
DNA 2: CCAAGTTGGAACATGGACGGTGCCTTCCGACCTTATG
B8: binds (PpERF17 [1]).
